Sequences and labels used below:
T1: full-length human TL1A on CHO-K1 cells (human, UniProt O95150 1-251)
T1 construct: whole, on cells; also called cells over-expressing human TL1A
T1 sequence (looked up): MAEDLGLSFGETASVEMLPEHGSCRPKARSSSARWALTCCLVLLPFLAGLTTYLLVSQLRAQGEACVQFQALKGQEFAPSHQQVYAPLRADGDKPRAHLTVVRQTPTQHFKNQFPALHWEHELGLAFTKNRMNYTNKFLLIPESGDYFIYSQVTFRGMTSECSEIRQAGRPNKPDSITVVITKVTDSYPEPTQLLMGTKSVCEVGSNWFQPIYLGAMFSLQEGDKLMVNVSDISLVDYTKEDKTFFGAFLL

T2: recombinant human TL1A (human, UniProt O95150 71-251)
T2 construct: Homotrimeric cytokine; biotinylated with Sulfo-NHS-biotin where captured for SPR, coated unlabelled in ELISA, soluble in bioassays; also called TNFSF15
T2 chain: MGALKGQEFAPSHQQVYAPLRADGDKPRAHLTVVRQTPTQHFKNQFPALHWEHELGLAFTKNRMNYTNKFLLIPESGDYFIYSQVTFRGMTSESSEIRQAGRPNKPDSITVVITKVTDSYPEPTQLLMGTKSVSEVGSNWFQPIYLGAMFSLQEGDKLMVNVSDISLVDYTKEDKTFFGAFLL

B1: [xTL1A]-0336 (antibody, human IgG1, kappa, V domains shown)
VH: QVQLVQSGAEVKKPGASVKVSCKASGYTFTSYGISWVRQAPGQGLEWMGWISAYNGNTNYAQKLQGRVTMTTDTSTSTAYMELRSLRSDDTAVYYCARESYYGSEAFRAGMDVWGQGTTVTVSS
VL: DIQMTQSPSSLSASVGDRVTITCRASQSVSSYLAWYQQKPGKAPKLLIYDASNRATGVPSRFSGSGSGTDFTLTISSLQPEDFATYYCQQRSNWPWTFGQGTKVEIKR
notes: bivalent disabled antibody, IgG1 effector-function-minimized/kappa
B2: [xTL1A]-0352 (antibody, human IgG1, kappa, V domains shown)
VH: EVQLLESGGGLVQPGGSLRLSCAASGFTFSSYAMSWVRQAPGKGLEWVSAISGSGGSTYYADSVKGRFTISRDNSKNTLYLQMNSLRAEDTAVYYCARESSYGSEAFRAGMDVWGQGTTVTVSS
VL: B1 VL
notes: as for B1
B3: [xTL1A]-0363 (antibody, human IgG1, kappa, V domains shown)
VH: not shown
VL: B1 VL
notes: as for B1
B4: [xTL1A]-0347 (antibody, human IgG1, kappa, V domains shown)
VH: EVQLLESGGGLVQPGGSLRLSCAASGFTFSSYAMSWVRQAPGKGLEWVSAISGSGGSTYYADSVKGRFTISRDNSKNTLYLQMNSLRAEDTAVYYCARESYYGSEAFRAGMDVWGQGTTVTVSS
VL: B1 VL
notes: as for B1
B5: [xTL1A]-0358 (antibody, human IgG1, kappa, V domains shown)
VH: not shown
VL: B1 VL
notes: as for B1
B6: [xTL1A]-0338 (antibody, human IgG1, kappa, V domains shown)
VH: B1 VH with Y101S, A109G
VL: B1 VL
notes: as for B1
B7: [xTL1A]-0349 (antibody, human IgG1, kappa, V domains shown)
VH: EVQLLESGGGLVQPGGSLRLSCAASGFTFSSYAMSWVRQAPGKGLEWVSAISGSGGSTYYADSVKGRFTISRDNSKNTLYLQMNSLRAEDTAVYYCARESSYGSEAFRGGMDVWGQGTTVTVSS
VL: B1 VL
notes: as for B1
B8: TL1A-0374 MBsAb (bispecific antibody)
heavy 1: QVQLVQSGAEVKKPGASVKVSCKASGYDYTYYGISWVRQAPGQGLEWMGWISTYNTGTHYAPSLQGRVTMTTDTSTSTAYMELRSLRSDDTAVYYCARESYYGSGAFRGGMDVWGQGTTVTVSSASTKGPSVFPLAPSSKSTSGGTAALGCLVKDYFPEPVTVSWNSGALTSGVHTFPAVLQSSGLYSLSSVVTVPSSSLGTQTYICNVNHKPSNTKVDKKVEPKSCDKTHTCPPCPAPEAAGAPSVFLFPPKPKDTLMISRTPEVTCVVVDVSHEDPEVKFNWYVDGVEVHNAKTKPREEQYNSTYRVVSVLTVLHQDWLNGKEYKCKVSNKALPAPIEKTISKAKGQPREPQVCTLPPSREEMTKNQVSLWCLVKGFYPSDIAVEWESNGQPENNYKTTPPVLDSDGSFFLYSKLTVDKSRWQQGNVFSCSVLHEALHSHYTQKSLSLSPGK
heavy 2: not shown
light: not shown
notes: not shown: human IgG1 constant region with hole KiH, effector-minimizing and LS mutations
B9: TL1A-0371 MBsAb (bispecific antibody)
heavy 1: B8 heavy 1
heavy 2: not shown
light: not shown
notes: as for B8
B10: TL1A-0373 MBsAb (bispecific antibody)
heavy 1: B8 heavy 1
heavy 2: not shown
light: not shown
notes: as for B8
B11: TL1A-0373 (bispecific antibody)
heavy 1: B8 heavy 1
heavy 2: not shown
light: not shown
notes: not shown: human IgG1 constant region with effector-minimizing, KiH and LS mutations
B12: TL1A-0374 (bispecific antibody)
heavy 1: B8 heavy 1
heavy 2: not shown
light: not shown
notes: also called TL1A-0374 MBsAb; not shown: human IgG1 constant region with effector-minimizing, KiH and LS mutations
B13: TL1A-0326 (antibody, human IgG1, kappa)
heavy 1: B8 heavy 1
heavy 2: EPKSSDKTHTCPPCPAPEAAGAPSVFLFPPKPKDTLMISRTPEVTCVVVDVSHEDPEVKFNWYVDGVEVHNAKTKPREEQYNSTYRVVSVLTVLHQDWLNGKEYKCKVSNKALPAPIEKTISKAKGQPREPQVYTLPPCREEMTKNQVSLSCAVKGFYPSDIAVEWESNGQPENNYKTTPPVLDSDGSFFLVSKLTVDKSRWQQGNVFSCSVLHEALHSHYTQKSLSLSPGK
light: not shown
notes: one-armed (monovalent) antibody derived from TL1A-0260
B14: TL1A-0375 (bispecific antibody)
heavy 1: B8 heavy 1
heavy 2: not shown
light: not shown
notes: also called TL1A-0375 MBsAb; not shown: human IgG1 constant region with effector-minimizing, KiH and LS mutations

Numbering of substitutions follows the chain as printed.

T4 sequence (P02769 25-607 limits assumed): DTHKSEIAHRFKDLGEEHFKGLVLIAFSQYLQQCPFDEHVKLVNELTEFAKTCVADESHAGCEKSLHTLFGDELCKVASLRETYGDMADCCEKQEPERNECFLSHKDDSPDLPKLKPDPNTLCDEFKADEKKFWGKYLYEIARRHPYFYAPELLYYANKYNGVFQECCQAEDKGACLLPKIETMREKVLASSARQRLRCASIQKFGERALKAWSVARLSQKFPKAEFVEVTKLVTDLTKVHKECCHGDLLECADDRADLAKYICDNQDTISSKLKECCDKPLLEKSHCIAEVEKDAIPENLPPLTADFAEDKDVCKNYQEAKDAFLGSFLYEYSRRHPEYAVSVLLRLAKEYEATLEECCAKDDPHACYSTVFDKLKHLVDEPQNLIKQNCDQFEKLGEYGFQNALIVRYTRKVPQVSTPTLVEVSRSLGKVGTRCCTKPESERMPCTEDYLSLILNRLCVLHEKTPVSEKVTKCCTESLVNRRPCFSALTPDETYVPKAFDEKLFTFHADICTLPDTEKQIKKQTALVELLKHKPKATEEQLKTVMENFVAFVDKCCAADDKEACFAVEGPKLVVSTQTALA

The first experiment concerns the target T1, full-length human TL1A on CHO-K1 cells. Nature of the experiment: flow cytometry on CHO-K1 cells stably expressing full-length human TL1A, PE anti-human IgG, median fluorescent intensity. The method, then:
A cell binding assay was performed to examine if the panel of [xTL1A] bivalent antibody variants could bind to human TL1A over-expressed on the cell surface. […] [xTL1A] bivalent antibody variants were incubated with cells on ice for 30-60 minutes at a concentration of either 1 μg/mL or 20 μg/mL. Cells were pelleted by centrifugation at 1500 RPM for 5 minutes at 4° C. and supernatant was discarded by aspiration. The cells were washed three times with DPBS with 4% FBS buffer as described. Cells were resuspended in 100 μL of PE-anti-human IgG (Life technologies Catalog number H10104) diluted 1:500 in DPBS with 4% FBS buffer and incubated on ice for 15 minutes. Cells were washed three times as described and resuspended in 200 μL of DPBS with 4% FBS buffer, then run on a flow cytometry instrument.
Background: In flow cytometry, cells or beads pass a laser one at a time.
As for B1, the binding result is listed as “no binding (tested: 20 ug/mL)”.

B2: the binding result is on record as “no binding (tested: 20 ug/mL)”.

On to B3, for which the binding result is listed as “no binding (tested: 20 ug/mL)”.

For the molecule B4, the binding result is listed as “no binding (tested: 20 ug/mL)”.

Take B5: the binding result is given as “no binding (tested: 20 ug/mL)”.

Turning to B6, the binding result was “no binding (tested: 20 ug/mL)”.

As to B7, the binding result was “no binding (tested: 20 ug/mL)”.

Another experiment deals with T3, human serum albumin (human, UniProt P02768 25-609).
T3 construct: also called HSA
Nature of the experiment: direct binding ELISA on coated HSA. The method, then:
(§1) For the direct binding ELISA method to HSA or BSA, 96-well high binding plates (Corning, product number 3590) were coated with 1 μg/mL recombinant HSA or BSA in 100 μL/well in PBS overnight at 4° C. Plates were then blocked in PBS+0.02% casein solution and washed with PBS+0.05% Tween-20 following standard ELISA protocol. […] Plates were washed with PBS+0.05% Tween-20 following standard ELISA protocol, and goat anti-human IgG-Fc HRP conjugated secondary antibody (Pierce, #31413) diluted to 1:10,000 in assay buffer was added to plates and incubated for 1 hour at room temperature. Next, the plates were washed with PBS+0.05% Tween-20 following standard ELISA protocol, and then TMB substrate (BioFX Laboratories, catalog number TMBW-0100-01) was added to plates.
(§2) Reactions were stopped after approximately 5 minutes by adding 0.18 M ortho-phosphoric acid to each well and absorbance was read at 450 nm. […] For this method, samples diluted to 0.3 mg/mL were dispensed into the sample tray of a MicroCal VP-Capillary DSC with Autosampler (Malvern Instruments, Inc.), equilibrated for 5 minutes at 10° C. and then scanned up to 110° C. at a rate of 100° C. per/hour. A filtering period of 16 seconds was selected. Raw data was baseline corrected and the protein concentration was normalized. Origin Software 7.0 (Origin Lab Corporation, Northampton, MA) was used to fit the data to an MN2-State Model with an appropriate number of transitions.
(An ELISA detects its analyte on a solid surface through an enzyme-linked reagent.)
As to B8, the binding result is “no binding (tested: 0.5-1000 nM)”.

Turning to B9, the binding result is reported as “no binding (tested: 0.5-1000 nM)”.

Regarding B10, the binding result was “no binding (tested: 0.5-1000 nM)”.

The next experiment addresses T2, recombinant human TL1A. Nature of the experiment: direct binding ELISA on plate-coated recombinant human TL1A (1 ug/mL), anti-human IgG-Fc HRP, OD450. The method, then: For the direct binding ELISA, 96-well high binding plates (Corning, product number 3590) were coated with 1 μg/mL recombinant TL1A in 100 μL/well in PBS overnight at 4° C. Plates were then blocked in PBS+0.02% casein solution and washed with PBS+0.05% Tween-20 following standard ELISA protocol. […] Plates were washed with PBS+0.05% Tween-20 following a standard ELISA protocol, and goat anti-human IgG-Fc HRP conjugated secondary antibody (Pierce, catalog number 31413) diluted to 1:10,000 in assay buffer was added to plates and incubated for 1 hour at room temperature. Next, the plates were washed with PBS+0.05% Tween-20 following a standard ELISA protocol, and then TMB substrate (BioFX Laboratories, catalog number TMBW-0100-01) was added to the plates. Reactions were stopped after approximately 5 minutes by adding 0.18 M ortho-phosphoric acid to each well and absorbance was read at 450 nm.
As for B1, the binding result is on record as “no binding (tested: 33.3 nM)”.

In the case of B2, the binding result was “no binding (tested: 33.3 nM)”.

Turning to B3, the binding result is on record as “no binding (tested: 33.3 nM)”.

B4: the binding result was “no binding (tested: 33.3 nM)”.

In the case of B5, the binding result is “no binding (tested: 33.3 nM)”.

Turning to B6, the binding result was “no binding (tested: 33.3 nM)”.

Regarding B7, the binding result was “no binding (tested: 33.3 nM)”.

Another experiment has as its target T2, recombinant human TL1A. The experiment can be described thus: cell-based or functional assay.
B11: the “NFκB Bioassay IC50” value came out at 1.66 nM.

On to B12, for which the “NFκB Bioassay IC50” value came out at 1.49 nM.

As to B13, the “NFκB Bioassay IC50” value came out at 1.28 nM.

For the molecule B14, the “NFκB Bioassay IC50” value came to 1.35 nM.

Another experiment has as its target T4, bovine serum albumin (bovine, UniProt P02769 25-607).
T4 construct: also called BSA
Nature of the experiment: direct binding ELISA on plate-coated BSA (1 ug/mL), anti-human IgG-Fc HRP, OD450. The method, then: as §1, §2
As for B11, the binding result is on record as “no binding (tested: 1e-6 M)”.

For B12, the binding result is listed as “no binding (tested: 1e-6 M)”.

Take B13: the binding result was “no binding (tested: 1e-6 M)”.

Consider B14, for which the binding result is given as “no binding (tested: 1e-6 M)”.

A further experiment concerns the target T4, bovine serum albumin. Nature of the experiment: direct binding ELISA on coated BSA. How it is done: as §1, §2
In the case of B8, the binding result is “no binding (tested: 0.5-1000 nM)”.

B9: the binding result is recorded as “no binding (tested: 0.5-1000 nM)”.

Take B10: the binding result is “no binding (tested: 0.5-1000 nM)”.

The next experiment has as its target T3, human serum albumin. The experiment can be described thus: direct binding ELISA on plate-coated HSA (1 ug/mL), anti-human IgG-Fc HRP, OD450. How it is done: as §1, §2
Consider B11, for which the binding result is “no binding (tested: 1e-6 M)”.

For the molecule B12, the binding result is recorded as “no binding (tested: 1e-6 M)”.

On to B13, for which the binding result was “no binding (tested: 1e-6 M)”.

As for B14, the binding result is reported as “no binding (tested: 1e-6 M)”.

A further experiment addresses T2, recombinant human TL1A. Nature of the experiment: SPR, recombinant human TL1A. In general terms: Surface plasmon resonance follows binding to a sensor surface in real time, without labels.
Regarding B11, the Kd (in general, the constant that tells how readily two partners part at equilibrium) is 0.285 nM; the koff – broadly, a measure of how fast the partners let go of each other – worked out at 4.95e-05 s⁻¹; the kon (commonly the second-order rate constant of association) is 173000 M⁻¹ s⁻¹.

B12: the dissociation constant (Kd) turned out to be 0.268 nM, the koff was 5.59e-05 s⁻¹ and the kon was found to be 209000 M⁻¹ s⁻¹.

B13: the Kd was found to be 0.292 nM, the dissociation rate constant (koff) stood at 5.84e-05 s⁻¹ and the kon was found to be 200000 M⁻¹ s⁻¹.

B14: the Kd stood at 0.232 nM, the koff worked out at 4.9e-05 s⁻¹ and the kon was 211000 M⁻¹ s⁻¹.

These data come from US20240059799A1 (Pfizer, published 2024).
